Measurements: patent US20240192215A1 (E AND S HEALTHCARE, published 2024)

How the values were obtained:
Peptide_004 [1] = target: T1, Peptide_004 (human); test: peptide microarray, 1 ug/mL
T1 construct: 15-mer on microarray; not native form, recombinant insert region
T1 peptide: AADVHSQHHHHHHHH
Experimental: (§1) 5, 1, 0.2, 0.04, 0.008 and 0.0016 μg/mL serial dilutions were incubated on a single multi-well microarray slide at 30° C. for 1 hour. The slide includes 21 individual mini-arrays (one mini-array per sample dilution).
(§2) DyLight 650 was used as a label. False-positive binding to a peptide was evaluated by performing one additional control incubation in which only a secondary antibody was applied on the same microarray slide. Before performing each step, the microarrays were washed with a washing buffer.

Peptide_005 [2] = target: T2, Peptide_005 (human); test: peptide microarray, 1 ug/mL
T2 construct: 15-mer on microarray; not native form, recombinant insert region
T2 peptide: ADVHSQHHHHHHHHV
Experimental: as §1, §2

Peptide_004 [3] = target: T1, Peptide_004; test: peptide microarray, 5 ug/mL
Experimental: as §1, §2

Peptide_005 [4] = target: T2, Peptide_005; test: peptide microarray, 5 ug/mL
Experimental: as §1, §2

Peptide_005 [5] = target: T2, Peptide_005; test: peptide microarray, 0.0016 ug/mL
Experimental: as §1, §2

Peptide_012 [6] = target: T3, Peptide_012 (human); test: peptide microarray, 1 ug/mL
T3 construct: 15-mer on microarray; not native form, includes recombinant insert region
T3 peptide: HHHHHHHVKQIESKT
Experimental: as §1, §2

Peptide_013 [7] = target: T4, Peptide_013 (human); test: peptide microarray, 1 ug/mL
T4 construct: 15-mer on microarray; not native form, includes recombinant insert region
T4 peptide: HHHHHHVKQIESKTA
Experimental: as §1, §2

Peptide_014 [8] = target: T5, Peptide_014 (human); test: peptide microarray, 1 ug/mL
T5 construct: 15-mer on microarray; not native form, includes recombinant insert region
T5 peptide: HHHHHVKQIESKTAF
Experimental: as §1, §2

Peptide_015 [9] = target: T6, Peptide_015 (human); test: peptide microarray, 1 ug/mL
T6 construct: 15-mer on microarray; not native form, includes recombinant insert region
T6 peptide: HHHHVKQIESKTAFQ
Experimental: as §1, §2

Peptide_018 [10] = target: T7, Peptide_018 (human); test: peptide microarray, 1 ug/mL
T7 construct: 15-mer on microarray; not native form, includes recombinant insert region; also called HVKQIESKTAFQEAL
T7 peptide: HVKQIESKTAFQEAL
Experimental: as §1, §2

Peptide_019 [11] = target: T8, Peptide_019 (human); test: peptide microarray, 1 ug/mL
T8 construct: 15-mer of hTrx1 on microarray
T8 peptide: VKQIESKTAFQEALD
Experimental: as §1, §2

Peptide_020 [12] = target: T9, Peptide_020 (human); test: peptide microarray, 1 ug/mL
T9 construct: 15-mer of hTrx1 on microarray
T9 peptide: KQIESKTAFQEALDA
Experimental: as §1, §2

Peptide_021 [13] = target: T10, Peptide_021 (human); test: peptide microarray, 1 ug/mL
T10 construct: 15-mer of hTrx1 on microarray
T10 peptide: QIESKTAFQEALDAA
Experimental: as §1, §2

Peptide_022 [14] = target: T11, Peptide_022 (human); test: peptide microarray, 1 ug/mL
T11 construct: 15-mer of hTrx1 on microarray
T11 peptide: IESKTAFQEALDAAG
Experimental: as §1, §2

Peptide_023 = target: T12, Peptide_023 (human); test: peptide microarray, 1 ug/mL
T12 construct: 15-mer of hTrx1 on microarray
T12 peptide: ESKTAFQEALDAAGD
Experimental: as §1, §2

Peptide_024 = target: T13, Peptide_024 (human); test: peptide microarray, 1 ug/mL
T13 construct: 15-mer of hTrx1 on microarray
T13 peptide: SKTAFQEALDAAGDK
Experimental: as §1, §2

Peptide_025 = target: T14, Peptide_025 (human); test: peptide microarray, 1 ug/mL
T14 construct: 15-mer of hTrx1 on microarray
T14 peptide: KTAFQEALDAAGDKL
Experimental: as §1, §2

Peptide_045 [15] = target: T15, Peptide_045 (human); test: peptide microarray, 1 ug/mL
T15 construct: 15-mer of hTrx1 on microarray
T15 peptide: SATWCGPCKMIKPFF
Experimental: as §1, §2

Peptide_051 [16] = target: T16, Peptide_051 (human); test: peptide microarray, 1 ug/mL
T16 construct: 15-mer of hTrx1 on microarray
T16 peptide: PCKMIKPFFHSLSEK
Experimental: as §1, §2

Peptide_084 [17] = target: T17, Peptide_084 (human); test: peptide microarray, 1 ug/mL
T17 construct: 15-mer of hTrx1 on microarray
T17 peptide: SECEVKCMPTFQFFK
Experimental: as §1, §2

Peptide_085 [18] = target: T18, Peptide_085 (human); test: peptide microarray, 1 ug/mL
T18 construct: 15-mer of hTrx1 on microarray
T18 peptide: ECEVKCMPTFQFFKK
Experimental: as §1, §2

Peptide_086 = target: T19, Peptide_086 (human); test: peptide microarray, 1 ug/mL
T19 construct: 15-mer of hTrx1 on microarray
T19 peptide: CEVKCMPTFQFFKKG
Experimental: as §1, §2

Peptide_092 [19] = target: T20, Peptide_092 (human); test: peptide microarray, 1 ug/mL
T20 construct: 15-mer of hTrx1 on microarray
T20 peptide: PTFQFFKKGQKVGEF
Experimental: as §1, §2

Peptide_093 = target: T21, Peptide_093 (human); test: peptide microarray, 1 ug/mL
T21 construct: 15-mer of hTrx1 on microarray
T21 peptide: TFQFFKKGQKVGEFS
Experimental: as §1, §2

Peptide_094 = target: T22, Peptide_094 (human); test: peptide microarray, 1 ug/mL
T22 construct: 15-mer of hTrx1 on microarray
T22 peptide: FQFFKKGQKVGEFSG
Experimental: as §1, §2

Peptide_095 [20] = target: T23, Peptide_095 (human); test: peptide microarray, 1 ug/mL
T23 construct: 15-mer of hTrx1 on microarray
T23 peptide: QFFKKGQKVGEFSGA
Experimental: as §1, §2

Peptide_012 [21] = target: T3, Peptide_012; test: peptide microarray, 5 ug/mL
Experimental: as §1, §2

Peptide_013 [22] = target: T4, Peptide_013; test: peptide microarray, 5 ug/mL
Experimental: as §1, §2

Peptide_014 [23] = target: T5, Peptide_014; test: peptide microarray, 5 ug/mL
Experimental: as §1, §2

Peptide_020 [24] = target: T9, Peptide_020; test: peptide microarray, 5 ug/mL
Experimental: as §1, §2

Peptide_021 [25] = target: T10, Peptide_021; test: peptide microarray, 5 ug/mL
Experimental: as §1, §2

Peptide_022 [26] = target: T11, Peptide_022; test: peptide microarray, 5 ug/mL
Experimental: as §1, §2

Peptide_045 [27] = target: T15, Peptide_045; test: peptide microarray, 5 ug/mL
Experimental: as §1, §2

Peptide_051 [28] = target: T16, Peptide_051; test: peptide microarray, 5 ug/mL
Experimental: as §1, §2

Peptide_084 [29] = target: T17, Peptide_084; test: peptide microarray, 5 ug/mL
Experimental: as §1, §2

Peptide_092 [30] = target: T20, Peptide_092; test: peptide microarray, 5 ug/mL
Experimental: as §1, §2

Peptide_095 [31] = target: T23, Peptide_095; test: peptide microarray, 5 ug/mL
Experimental: as §1, §2

Peptide_013 [32] = target: T4, Peptide_013; test: peptide microarray, 0.0016 ug/mL
Experimental: as §1, §2

Peptide_015 [33] = target: T6, Peptide_015; test: peptide microarray, 0.0016 ug/mL
Experimental: as §1, §2

Peptide_018 [34] = target: T7, Peptide_018; test: peptide microarray, 0.0016 ug/mL
Experimental: as §1, §2

Peptide_019 [35] = target: T8, Peptide_019; test: peptide microarray, 0.0016 ug/mL
Experimental: as §1, §2

Peptide_045 [36] = target: T15, Peptide_045; test: peptide microarray, 0.0016 ug/mL
Experimental: as §1, §2

Peptide_085 [37] = target: T18, Peptide_085; test: peptide microarray, 0.0016 ug/mL
Experimental: as §1, §2

B1: monoclonal antibody B266-1 (antibody, human IgG1)
light: QIVLTQSPAIMSASPGEKVTMTCSASSRISYMYWYQQKPGTSPKRWIYDTSKLASGVPARFSGSGSGTSYSLTISTMEAEDAATYYCHQRSSYPTFGAGTKLELKSVAAPSVFIFPPSDEQLKSGTASVVCLLNNFYPREAKVQWKVDNALQSGNSQESVTEQDSKDSTYSLSSTLTLSKADYEKHKVYACEVTHQGLSSPVTKSFNRGEC
heavy: not shown
notes: B266 with the Fc part changed to human IgG1; also called B266-1 (Trx1-hIgG1); B266-1 (hTrx1-hIgG1)
signal (blank-control = 1) (Peptide_004 [1]): 2.71 | signal (blank-control = 1) (Peptide_005 [2]): 3.58 | signal (blank-control = 1) (Peptide_004 [3]): 6.78 | signal (blank-control = 1) (Peptide_005 [4]): 7.63 | signal (blank-control = 1) (Peptide_005 [5]): 1.6

B2: monoclonal antibody B264 (antibody, mouse IgG1, kappa, V domains shown)
VH: QVQLQQSGAELARPGASVKMSCKASGYTFTSYTMHWVKQRPGQGLEWIGYINPTSDYTNYNQKFKDKATLTADKSSSTAYMQLSSLTSEDSAVYFCASEGGFLYYFDYWGQGTTLTVSS
VL: DVLMTQTPLSLPVSLGDQASISCRSSQSIVHSNGNTYLEWYLQKPGQSPKLLIYKVSNRFSGVPDRFSGSGSGTDFTLKISRVEAEDLGVYYCFQGSHVPYTFGGGTKLEIKR
notes: also called AB264; B264 (Trx1-mIgG1)
signal (blank-control = 1) (Peptide_012 [6]): 3.65 | signal (blank-control = 1) (Peptide_013 [7]): 4.05 | signal (blank-control = 1) (Peptide_014 [8]): 6.71 | signal (blank-control = 1) (Peptide_015 [9]): 5.11 | signal (blank-control = 1) (Peptide_018 [10]): 5.52 | signal (blank-control = 1) (Peptide_019 [11]): 1.67 | signal (blank-control = 1) (Peptide_020 [12]): 2.3 | signal (blank-control = 1) (Peptide_021 [13]): 2.48 | signal (blank-control = 1) (Peptide_022 [14]): 5.88 | signal (blank-control = 1) (Peptide_023): 1.19 | signal (blank-control = 1) (Peptide_024): 6.5 | signal (blank-control = 1) (Peptide_025): 7.24 | signal (blank-control = 1) (Peptide_045 [15]): 5.11 | signal (blank-control = 1) (Peptide_051 [16]): 3.91 | signal (blank-control = 1) (Peptide_084 [17]): 3.26 | signal (blank-control = 1) (Peptide_085 [18]): 3.56 | signal (blank-control = 1) (Peptide_086): 1.56 | signal (blank-control = 1) (Peptide_092 [19]): 9.76 | signal (blank-control = 1) (Peptide_093): 5.33 | signal (blank-control = 1) (Peptide_094): 3.26 | signal (blank-control = 1) (Peptide_095 [20]): 3.52 | signal (blank-control = 1) (Peptide_012 [21]): 4.49 | signal (blank-control = 1) (Peptide_013 [22]): 4.87 | signal (blank-control = 1) (Peptide_014 [23]): 6.9 | signal (blank-control = 1) (Peptide_020 [24]): 2.41 | signal (blank-control = 1) (Peptide_021 [25]): 2.69 | signal (blank-control = 1) (Peptide_022 [26]): 5.54 | signal (blank-control = 1) (Peptide_045 [27]): 4.9 | signal (blank-control = 1) (Peptide_051 [28]): 4.28 | signal (blank-control = 1) (Peptide_084 [29]): 3.79 | signal (blank-control = 1) (Peptide_092 [30]): 6.78 | signal (blank-control = 1) (Peptide_095 [31]): 3.44 | signal (blank-control = 1) (Peptide_013 [32]): 0.75 | signal (blank-control = 1) (Peptide_015 [33]): 0.58 | signal (blank-control = 1) (Peptide_018 [34]): 0.68 | signal (blank-control = 1) (Peptide_019 [35]): 0.85 | signal (blank-control = 1) (Peptide_045 [36]): 4.08 | signal (blank-control = 1) (Peptide_085 [37]): 0.65
